This note sets out measurements from patent publication US20250136687A1.

Values joined by “and” are separate entries in the source; they are usually repeats but may differ in a detail not shown here. Identical values can stand only once. Like-named read-outs stand apart in the source and are kept apart here.

In experiment [1] the target is human CD3 on the cell surface (Jurkat cells, expanded human T cells, Jurkat-Lucia NFAT cells, human PBMC) (human) (UniProt P07766). The experiment in a line: FACS, expanded human T cells. Background: Flow cytometry measures light scatter and fluorescence of single cells or particles in a stream.
In experiment [2] the target is cynomolgus monkey CD3 on the surface of expanded monkey T cells (cynomolgus monkey) (UniProt Q95LI5). Briefly: FACS, expanded monkey T cells.
Experiment [3] addresses human CD3 on the cell surface (Jurkat cells, expanded human T cells, Jurkat-Lucia NFAT cells, human PBMC) (human) (UniProt P07766). Briefly: FACS, Jurkat cells.
In experiment [4] the target is cynomolgus monkey CD3 on the surface of expanded monkey T cells (cynomolgus monkey) (UniProt Q95LI5). The experiment in a line: FACS, expanded monkey T cells. The source holds these as a separate data set.
Experiment [5] deals with monkey CD3ε/δ-His (monkey) (UniProt Q95LI5). Briefly: ELISA, coated antigen. Background: ELISA stands for enzyme-linked immunosorbent assay.
Experiment [6] concerns the target human CD3ε/δ-His (human) (UniProt P07766). The experiment in a line: ELISA, coated antigen.
The target of experiment [7] is recombinant human CD3ε-ECD His protein (human) (UniProt P07766). Briefly: ELISA, coated antigen.
Experiment [8] addresses monkey CD3ε protein (monkey) (UniProt Q95LI5). The experiment in a line: ELISA, coated antigen.
Experiment [9] has as its target human CD3 on the cell surface (Jurkat cells, expanded human T cells, Jurkat-Lucia NFAT cells, human PBMC) (human) (UniProt P07766). Briefly: FACS, expanded human T cells. This is another data set of the same source.
Experiment [10] concerns the target cynomolgus monkey CD3 on the surface of expanded monkey T cells (cynomolgus monkey) (UniProt Q95LI5). Briefly: FACS, expanded monkey T cells, 4 nM antibody.
For experiment [11] the target is unchanged. Briefly: FACS, expanded monkey T cells, 20 nM antibody.
The target in experiment [12] is human CD3 on the cell surface (Jurkat cells, expanded human T cells, Jurkat-Lucia NFAT cells, human PBMC) (human) (UniProt P07766). The experiment in a line: cell-based or functional assay.
The target of experiment [13] is recombinant human CD3ε-ECD His protein (human) (UniProt P07766). The experiment in a line: ELISA, coated antigen. This is another data set of the same source.
The target of experiment [14] is human CD3 on the cell surface (Jurkat cells, expanded human T cells, Jurkat-Lucia NFAT cells, human PBMC) (human) (UniProt P07766). The experiment in a line: cell-based or functional assay. This is another data set of the same source.
Experiment [15] has the same target. Briefly: FACS, Jurkat cells. This is another data set of the same source.
For experiment [16] the target is unchanged. The experiment in a line: cell-based or functional assay. This is another data set of the same source.
Experiment [17] has the same target. Briefly: FACS, Jurkat cells. This is another data set of the same source.
Experiment [18] has the same target. The experiment in a line: FACS, expanded human T cells. The source holds these as a separate data set.
Experiment [19] has the same target. Briefly: cell-based or functional assay. This is another data set of the same source.
Experiment [20] shares this target. Briefly: FACS, expanded human T cells. The source holds these as a separate data set.
Experiment [21] addresses cynomolgus monkey CD3 on the surface of expanded monkey T cells (cynomolgus monkey) (UniProt Q95LI5). The experiment in a line: FACS, expanded monkey T cells. The source holds these as a separate data set.
For experiment [22] the target is unchanged. The experiment in a line: FACS, expanded monkey T cells, 100 nM antibody.
The target in experiment [23] is monkey CD3ε/δ-His (monkey) (UniProt Q95LI5). Briefly: ELISA, coated antigen, hybridoma screening.
The target of experiment [24] is human CD3ε/δ-His (human) (UniProt P07766). Briefly: ELISA, coated antigen, hybridoma screening.

One may read the EC50 as the midpoint of the concentration-response curve.

Sequence of human CD3ε/δ-His (human) (P07766 23-126, stated change not applied, form in doubt, chain 1 of 2): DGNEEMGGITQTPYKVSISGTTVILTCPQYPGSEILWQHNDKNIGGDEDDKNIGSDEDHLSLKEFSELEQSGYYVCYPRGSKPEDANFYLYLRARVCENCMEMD
Sequence of human CD3ε/δ-His (human) (P04234 22-105, stated change not applied, form in doubt, chain 2 of 2, further chain): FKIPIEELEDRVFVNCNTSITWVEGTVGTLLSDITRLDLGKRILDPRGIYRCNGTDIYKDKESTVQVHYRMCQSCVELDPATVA
Sequence of cynomolgus monkey CD3 on the surface of expanded monkey T cells (cynomolgus monkey) (Q95LI5 22-198, chain 1 of 3): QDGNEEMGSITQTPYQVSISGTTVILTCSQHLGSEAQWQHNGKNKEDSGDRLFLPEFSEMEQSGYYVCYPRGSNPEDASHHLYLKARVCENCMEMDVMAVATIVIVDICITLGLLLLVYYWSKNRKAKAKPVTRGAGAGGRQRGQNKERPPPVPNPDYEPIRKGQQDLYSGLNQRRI
Sequence of cynomolgus monkey CD3 on the surface of expanded monkey T cells (cynomolgus monkey) (Q95LI8 22-171, chain 2 of 3, further chain): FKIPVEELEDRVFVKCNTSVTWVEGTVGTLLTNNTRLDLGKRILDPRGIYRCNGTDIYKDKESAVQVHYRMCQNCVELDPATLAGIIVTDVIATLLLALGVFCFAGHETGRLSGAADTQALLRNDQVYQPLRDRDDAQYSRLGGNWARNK
Sequence of cynomolgus monkey CD3 on the surface of expanded monkey T cells (cynomolgus monkey) (Q95LI7 23-181, chain 3 of 3, further chain): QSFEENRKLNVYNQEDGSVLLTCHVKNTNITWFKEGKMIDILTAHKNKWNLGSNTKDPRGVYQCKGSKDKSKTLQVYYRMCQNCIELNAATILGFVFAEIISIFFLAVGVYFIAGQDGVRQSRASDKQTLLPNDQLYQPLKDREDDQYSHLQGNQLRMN
Sequence of monkey CD3ε/δ-His (monkey) (Q95LI5 22-117, stated change not applied, form in doubt, chain 1 of 2): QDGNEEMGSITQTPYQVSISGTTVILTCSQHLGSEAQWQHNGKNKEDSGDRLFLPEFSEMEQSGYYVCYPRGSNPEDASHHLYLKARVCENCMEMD
Sequence of monkey CD3ε/δ-His (monkey) (Q95LI8 22-105, stated change not applied, form in doubt, chain 2 of 2, further chain): as the sequence (P04234 22-105, stated change not applied, form in doubt, chain 2 of 2, further chain) above, with I5V, N15K, I20V, S32T, D33N, I34N, T64A, S74N, V83L counted along it
Sequence of human CD3 on the cell surface (Jurkat cells, expanded human T cells, Jurkat-Lucia NFAT cells, human PBMC) (human) (P07766 23-207, chain 1 of 3): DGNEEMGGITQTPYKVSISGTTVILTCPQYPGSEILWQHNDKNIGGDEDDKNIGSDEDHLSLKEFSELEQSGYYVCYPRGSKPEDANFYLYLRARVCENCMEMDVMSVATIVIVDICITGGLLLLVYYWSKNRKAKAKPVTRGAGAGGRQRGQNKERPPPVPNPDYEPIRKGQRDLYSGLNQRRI
Sequence of human CD3 on the cell surface (Jurkat cells, expanded human T cells, Jurkat-Lucia NFAT cells, human PBMC) (human) (P04234 22-171, chain 2 of 3, further chain): as the sequence (Q95LI8 22-171, chain 2 of 3, further chain) above, with V5I, K15N, V20I, T32S, N33D, N34I, A64T, N74S, L83V, R141H counted along it
Sequence of human CD3 on the cell surface (Jurkat cells, expanded human T cells, Jurkat-Lucia NFAT cells, human PBMC) (human) (P09693 23-182, chain 3 of 3, further chain): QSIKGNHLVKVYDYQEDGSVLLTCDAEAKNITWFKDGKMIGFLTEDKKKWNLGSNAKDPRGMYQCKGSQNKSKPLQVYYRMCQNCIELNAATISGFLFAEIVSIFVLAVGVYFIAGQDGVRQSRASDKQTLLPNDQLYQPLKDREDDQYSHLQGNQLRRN
Sequence of recombinant human CD3ε-ECD His protein (human) (P07766 23-126): as the sequence (P07766 23-126, stated change not applied, form in doubt, chain 1 of 2) above
Sequence of monkey CD3ε protein (monkey) (Q95LI5 22-117 limits assumed): as the sequence (Q95LI5 22-117, stated change not applied, form in doubt, chain 1 of 2) above

As for “anti-hel-hIgG1 (negative control antibody against Hen Egg Lysozyme)”, the MFI Max in [1] was found to be 124 MFI; in experiment [2], 87 MFI; in [3], 151 MFI; in experiment [4], 1570 MFI; in experiment [9] it was 823 MFI; in experiment [15], 182 MFI. In addition, the MFI Max in experiment [17] turned out to be 490 MFI; in experiment [18], 195 MFI; in experiment [20], 148 MFI; in experiment [21], 195 MFI. The Maximum fluorescence value Alexa 647 is 299 MFI in experiment [2], 480 MFI in experiment [9] and 108 MFI in [17]. Also, the max MFI stood at 74 MFI in experiment [2] and 2250 MFI in [9]. In addition, the max-OD450 in [5] amounted to 0.15 OD450; with human CD3ε/δ-His (human) [6], 0.09 OD450; in experiment [7], 0.11 OD450; in experiment [8] it was 0.16 OD450; in [13], 0.09 OD450. This substance also came in with an EC50 in experiment [9] of 19.9 nM. The MFI at antibody concentration 4 nM in [10] was 64 MFI. Moreover, the MFI at antibody concentration 20 nM in experiment [11] was determined as 80 MFI. The Maximum response value (RLU) was 2330 RLU in experiment [12], 3780 RLU in experiment [14], 1830 RLU in [16] and 4250 RLU in experiment [19]. In experiment [22], this substance showed an MFI at antibody concentration 100 nM of 170 MFI.
For the substance “anti-hel-mIgG1 (negative control antibody against Hen Egg Lysozyme)”, the OD450 in experiment [23] is 0.07 OD450 and 0.04 OD450 and 0.05 OD450; with human CD3ε/δ-His (human) [24], 0.05 OD450 and 0.04 OD450.
